{"source": "patent US20180362994", "about": "“TRANSCRIPTION FACTORS THAT REGULATE NICOTINE BIOSYNTHESIS IN TOBACCO” (NORTH CAROLINA STATE UNIVERSITY, published 2018)", "biological_target": "NtMYC2aΔN (C-terminal bHLH domain) (Nicotiana tabacum)", "sequence (chain, as listed by the source mutant)": "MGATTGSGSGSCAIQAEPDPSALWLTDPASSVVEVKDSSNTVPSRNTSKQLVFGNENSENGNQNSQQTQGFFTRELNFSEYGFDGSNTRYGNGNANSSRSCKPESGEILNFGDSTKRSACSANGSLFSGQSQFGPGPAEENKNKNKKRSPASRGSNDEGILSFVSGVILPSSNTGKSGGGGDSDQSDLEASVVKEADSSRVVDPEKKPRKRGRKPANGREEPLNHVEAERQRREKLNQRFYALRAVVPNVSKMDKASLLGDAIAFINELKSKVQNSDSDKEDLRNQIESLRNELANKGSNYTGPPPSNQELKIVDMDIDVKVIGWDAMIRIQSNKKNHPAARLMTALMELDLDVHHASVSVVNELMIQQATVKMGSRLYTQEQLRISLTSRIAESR", "experiment": "EMSA; 10 mM Tris, 50 mM KCl, 1 mM DTT, poly(dI-dC), room temperature; 500x cold probe reduced the signal", "details": "tags: GST fusion, cleaved with thrombin; label: 3' biotin", "protocol": "EMSA was performed according to manual of the kit (LightShift,) Chemiluminescent EMSA Kit, Pierce). The binding buffer was 10 mM Tris, 50 mM KCl, 1 mM DTT, 0.05 μg/μl poly(di-dc), 0.05% NP-40, and 2.5% (v/v) glycerol. The probe was 20 fmol for each reaction. The cold probe and mutated probe were 10 pmol (500×) and the protein was 0.75 μg MYC2aΔN. The binding reaction was performed at room temperature for 20 min. The reaction mixture was separated on a 5% polyacrylamide gel and blotted on Hybond™-N⁺ membrane (Amersham, Piscataway, N.J., USA). UV crosslinker was used to crosslink the DNA to membrane. The membrane was probed and signal was detected according to the manual of kit (Chemiluminescent Nucleic Acid Detection Module Kit, Pierce). Kodak BioMax MS film (Carestream Health, Inc. Rochester, N.Y.) was exposed to record the signal.\nThree G-boxes (G2, G3 and G4) were identified in the 0.6 kb NtQPT2 promoter (NCBI accession No. AJ748263), among which G2 box has the highest binding strength with NtMYC2b (Shoji and Hashimoto, 2011). To validate that NtMYC2a binds to G2-box. EMSA experiment was performed with probes of 38 bp consisting of a G2 box (CACGTT) and flanking regions from the NtQPT2 promoter and mutated probe with mutation in the G2 box sequence. We cloned the full length of NtMYC2a and expressed the recombinant protein (NtMYC2a fused with GST) in E. coli. […]", "data": [{"binder": "G2-box probe of NtQPT2 promoter (dsDNA) DNA 1: AGTAGCTGAACACGTTTTATTTATGGTTGTTGAATAGT DNA 2: ACTATTCAACAACCATAAATAAAACGTGTTCAGCTACT", "values": [{"measurement": "binding result", "value": "binds"}]}]}
